From patent US7005505 come the findings set out here.

One may read the IC50 as the concentration needed to halve the response being measured. Lower therefore signals greater potency in that assay.

Like-named read-outs stand apart in the source and are kept apart here.

Assay [1] concerns the target KDR receptors on endothelial cells (bovine). Nature of the assay: cell-based or functional assay.
For assay [2] the target is unchanged. The experiment in a line: cell-based or functional assay. This is another data set of the same source.
The target in assay [3] is KDR-IgG (UniProt P35968). The experiment in a line: competition with 125I-VEGF165 for KDR-IgG, radioligand plate assay.
Sequence of KDR-IgG (P35968 20-764): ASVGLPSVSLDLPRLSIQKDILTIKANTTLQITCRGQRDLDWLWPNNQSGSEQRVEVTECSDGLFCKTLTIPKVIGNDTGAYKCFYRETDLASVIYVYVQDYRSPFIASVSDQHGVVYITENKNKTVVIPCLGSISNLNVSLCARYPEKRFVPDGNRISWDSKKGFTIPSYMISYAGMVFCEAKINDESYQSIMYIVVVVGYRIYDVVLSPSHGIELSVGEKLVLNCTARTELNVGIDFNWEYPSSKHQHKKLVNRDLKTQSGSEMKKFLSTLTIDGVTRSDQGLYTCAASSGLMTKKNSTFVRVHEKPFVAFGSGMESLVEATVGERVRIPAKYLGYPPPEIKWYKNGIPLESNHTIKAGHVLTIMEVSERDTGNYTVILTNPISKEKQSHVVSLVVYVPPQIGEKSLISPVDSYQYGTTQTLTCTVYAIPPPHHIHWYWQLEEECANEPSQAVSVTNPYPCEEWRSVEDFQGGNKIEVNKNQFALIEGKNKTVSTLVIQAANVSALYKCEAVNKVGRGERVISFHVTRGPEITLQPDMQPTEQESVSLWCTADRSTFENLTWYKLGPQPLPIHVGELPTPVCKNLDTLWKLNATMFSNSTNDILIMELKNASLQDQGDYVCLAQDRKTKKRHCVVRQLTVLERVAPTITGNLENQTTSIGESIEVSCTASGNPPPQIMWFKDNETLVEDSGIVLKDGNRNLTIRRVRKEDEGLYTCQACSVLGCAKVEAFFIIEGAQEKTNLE
The target in assay [4] is FLT-1 IgG (UniProt P17948). The experiment in a line: competition with 125I-VEGF165 for FLT-1-IgG, radioligand plate assay.
Sequence of FLT-1 IgG (P17948 27-758): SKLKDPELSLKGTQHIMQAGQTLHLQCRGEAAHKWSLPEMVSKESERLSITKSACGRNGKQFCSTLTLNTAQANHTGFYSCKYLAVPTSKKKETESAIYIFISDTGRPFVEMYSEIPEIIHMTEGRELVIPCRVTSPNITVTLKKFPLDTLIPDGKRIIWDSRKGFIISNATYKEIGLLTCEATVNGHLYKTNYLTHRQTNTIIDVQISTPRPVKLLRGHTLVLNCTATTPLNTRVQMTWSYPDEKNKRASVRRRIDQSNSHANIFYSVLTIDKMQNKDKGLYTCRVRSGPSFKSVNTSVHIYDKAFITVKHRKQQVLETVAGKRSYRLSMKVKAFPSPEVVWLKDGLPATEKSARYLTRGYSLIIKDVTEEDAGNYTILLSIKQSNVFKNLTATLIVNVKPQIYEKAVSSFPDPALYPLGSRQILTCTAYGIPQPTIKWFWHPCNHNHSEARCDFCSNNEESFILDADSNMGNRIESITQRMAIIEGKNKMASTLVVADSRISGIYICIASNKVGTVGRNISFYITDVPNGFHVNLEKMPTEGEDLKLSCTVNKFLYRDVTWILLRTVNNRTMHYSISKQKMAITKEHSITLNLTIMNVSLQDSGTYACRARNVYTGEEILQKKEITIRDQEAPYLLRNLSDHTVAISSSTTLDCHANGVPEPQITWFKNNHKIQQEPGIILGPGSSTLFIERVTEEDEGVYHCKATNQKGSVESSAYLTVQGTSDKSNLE
Assay [5] deals with KDR-IgG (UniProt P35968). The experiment in a line: competition with 125I-VEGF165 for KDR-IgG, radioligand plate assay, no heparin.
The target in assay [6] is FLT-1 IgG (UniProt P17948). Nature of the assay: competition with 125I-VEGF165 for FLT-1-IgG, radioligand plate assay, no heparin.

Sequence of KDR receptors on endothelial cells (bovine) (P12820 29-1306): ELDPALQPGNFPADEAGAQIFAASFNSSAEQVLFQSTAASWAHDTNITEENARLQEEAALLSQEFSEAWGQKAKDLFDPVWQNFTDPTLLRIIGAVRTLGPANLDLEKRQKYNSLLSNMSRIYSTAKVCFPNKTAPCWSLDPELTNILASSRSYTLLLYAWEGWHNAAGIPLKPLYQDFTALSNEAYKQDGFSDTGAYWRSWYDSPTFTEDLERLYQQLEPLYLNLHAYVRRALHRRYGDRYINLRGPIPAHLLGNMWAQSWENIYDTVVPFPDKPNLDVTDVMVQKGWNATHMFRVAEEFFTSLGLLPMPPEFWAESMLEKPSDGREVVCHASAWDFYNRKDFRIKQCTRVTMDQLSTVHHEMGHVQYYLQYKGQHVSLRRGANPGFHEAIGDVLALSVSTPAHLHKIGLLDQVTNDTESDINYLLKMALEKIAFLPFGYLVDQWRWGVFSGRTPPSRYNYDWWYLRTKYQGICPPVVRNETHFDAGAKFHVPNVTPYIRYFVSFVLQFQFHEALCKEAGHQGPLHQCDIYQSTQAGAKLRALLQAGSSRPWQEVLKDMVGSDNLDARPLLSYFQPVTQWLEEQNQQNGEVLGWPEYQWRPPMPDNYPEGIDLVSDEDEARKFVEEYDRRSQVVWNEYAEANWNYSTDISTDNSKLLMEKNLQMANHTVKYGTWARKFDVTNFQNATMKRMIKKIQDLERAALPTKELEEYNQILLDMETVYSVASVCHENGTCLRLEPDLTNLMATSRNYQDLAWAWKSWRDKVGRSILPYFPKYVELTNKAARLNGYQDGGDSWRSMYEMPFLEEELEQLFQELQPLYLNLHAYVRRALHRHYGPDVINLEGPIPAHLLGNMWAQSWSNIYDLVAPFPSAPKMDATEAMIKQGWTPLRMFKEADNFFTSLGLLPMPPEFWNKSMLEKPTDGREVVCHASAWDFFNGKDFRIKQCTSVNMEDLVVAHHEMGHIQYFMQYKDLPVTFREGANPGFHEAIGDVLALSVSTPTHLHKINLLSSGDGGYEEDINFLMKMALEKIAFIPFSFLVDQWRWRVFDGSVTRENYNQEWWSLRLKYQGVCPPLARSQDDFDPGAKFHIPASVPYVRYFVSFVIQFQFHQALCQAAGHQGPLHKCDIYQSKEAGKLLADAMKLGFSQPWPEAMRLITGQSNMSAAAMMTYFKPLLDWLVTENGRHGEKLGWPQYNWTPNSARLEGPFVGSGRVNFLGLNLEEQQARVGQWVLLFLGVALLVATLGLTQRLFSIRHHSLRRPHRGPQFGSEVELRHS

Regarding “K16A, D19T VEGF (from UniProt P15692 181-395) (ligand)”, the Half-Maximal Effective Concentration, Endothelial Cells was 2.05 ng/mL in assay [1] and 53 pM in assay [2]. Further, the IC50 in the assay with KDR-IgG [3] was found to be 2.1 ng/mL; with FLT-1 IgG [4] it was 0.73 ng/mL; with KDR-IgG [5], 0.026 nM; with FLT-1 IgG [6], 0.019 nM.
